From paper PMC9253517 (The Journal of Experimental Medicine, 2022)

B1: JN226 (antibody, V domains shown)
VH: QVQLVQSGAEVKKPGSSVKVSCKASGGTFSSYAISWVRQAPGQGLEWMGGIIPIFGTANYAQKFQGRVTITADKSTSTAYMELSSLRSEDTAVYYCAMLGAGSPLRGIFGVVMTDGDGMDVWGQGTTVTVSS
VL: QSVLTQPPSVSAAPGQKVTISCSGSSSNIGNNYVSWYQQLPGTAPKLLIYDNNKRPSGIPDRFSGSKSGTSATLGITGLQTGDEADYYCGTWDSSLSAGRVFGGGTKLTVL
B2: JN136 (antibody, V domains shown)
VH: QVQLVESGGGVVQPGRSLRLSCAASGFTFSSYAMHWVRQAPGKGLEWVAVISYDGSNKYYADSVKGRFTISRDNSKNTLYLQMNSLRAEDTAVYYCARELAWRGITIFGVVIYNPFDYWGQGTLVTVSS
VL: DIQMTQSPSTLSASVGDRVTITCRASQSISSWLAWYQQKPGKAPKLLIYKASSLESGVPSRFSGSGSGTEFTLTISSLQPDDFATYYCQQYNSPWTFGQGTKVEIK
B3: JN005 (antibody, V domains shown)
VH: QVQLVESGGGLVEPGGSLRLSCAASGFTFSDYFMSWIRQAPGRGLEWVSFITTSGSTIYYADSVKGRFTISRDNAKNSLYLQMNSLRAEDTAVYYCARRSGGYYDILTGPYGLDVWGQGTTVTVSS
VL: not shown
B4: JN222 (antibody, V domains shown)
VH: EVQLVESGGGLVQPGGSLRLSCAASGFTFSRYWMSWVRQAPGKGLEWVANIKGDGKYYVDSLKGRFTISGDNAENSLYLQMNSLRAEDTAMYYCARYLAETGALDIWGQGTMVTVSS
VL: QSALTQPRAVSGSPGQSVTISCTGTSSDVGGYNYVSWYQQHPGKAPKLMIYDVSKRPSGVPDRFSGSKSGNTASLTISGLQAEDEADYYCYSFSGRYTSYVFGIGTKVTVL
B5: JN223 (antibody, V domains shown)
VH: EVQLLESGGGLVQPGGSLRLSCAASRFTFSNFAMSWVRQAPGKGLEWVSAISGSGGSTYYADSVKGRFIISRDNSKNTLFLQMNSLRAEDTAVYFCAKDLPYDNTGARFDYWGQGTLVTVSS
VL: SYELTQPPSVSVSPGQTARITCSGDALPKKYAYWYQQKSGQAPVLVIYEDSKRPSGIPERFSGSSSGTMATLTISGAQVEDEADYYCYSTDSTGNHRGVFGGGTKLTVL
B6: JN229 (antibody, V domains shown)
VH: QVQLVQSGAEVKKPGSSVKVSCKASGGRFSSTAISWVRQAPGQGLEWMGGIIPIFGAPTDVQKFQGRVTITADQSTSTAYMELSNLRSEDTAVYYCATLGNYDFLTGNTFSYFDYWGQGTLVTVSS
VL: NFMLTQPHSVSESLGKTVTISCTRTSGSIASDYVQWYQQRPGSSPTTVIYENFQRPSGVPDRFSASVDSSSNSASLTISGLRAEDEADYYCQSHDRSDFLPVFGGGTQLTVL
B7: JN038 (antibody, V domains shown)
VH: B6 VH
VL: DIQLTQSPSSLSASVGDRVTITCRAGQSIGNYLNWYQQKPGKAPKVLIYGASSLQSGVPSRFSGSGSGTDFTLTISSLQPEDFASYYCQQSFTTPLTFGGGTKVEIK
B8: JN141 (antibody, V domains shown)
VH: EVQLVESGGGLVQPGGSLRLSCAASGFTFSSYSMNWVRQAPGKGLEWVSYISSSSSTISYADSVKGRFTISRDNAKNSLYLQMNSLRAEDTAVYYCASGKGVGFDYWGQGTLVTVSS
VL: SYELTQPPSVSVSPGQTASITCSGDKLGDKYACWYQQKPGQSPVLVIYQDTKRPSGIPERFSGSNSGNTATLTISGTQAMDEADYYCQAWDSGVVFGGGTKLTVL
B9: JN034 (antibody, V domains shown)
VH: QVQLQESGPGLVEPSQTLSLTCAVSGGSISGGDYYWSWIRQPPGKGLEWIGYIYYSGSTFYNPSLYSRLTISVDTSKNQFSLKLSSVTAADTAVYYCAREGPAIFKIPNGFDIWGQGTMVTVSS
VL: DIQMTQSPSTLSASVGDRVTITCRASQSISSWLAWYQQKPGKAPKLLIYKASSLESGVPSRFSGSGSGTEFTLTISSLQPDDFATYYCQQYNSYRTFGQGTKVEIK
B10: JN138 (antibody, V domains shown)
VH: QVQLVQSGTEVKKPGASVKVSCKASGYTFTSYYMHWVRQAPGQGLEWMGIINPSGGSTSYAQKFQGRVTMTRDTSTSTVYMELSSLRSEDTAVYYCARAELGSGSYPYYGMDVWGKGTTVTVSS
VL: SYELTQPPSVSVSPGQTARITCSGDALPKQYAYWYQQKPGQAPVLVIYKDSERPSGIPERFSGSSSGTTVTFTISGVQAEDEADYYCQSADSSGSYVVFGGGTKLTVL
B11: JN139 (antibody, V domains shown)
VH: QVQLQESGPGLVKPSETLSLTCTVSGGSISNYFWSWIRQPPGQGLEWIGYIFYNGDTTYNPSLKSRVTISVDTSKNQFSLKLSSVTAADTAVYYCARDYYDSRGVFHGGFDSWGQGILVTVSS
VL: DIVMTQSPDSLAVSLGERATINCKSSQSVLYSSNSRNYLAWYQQRPGQPPKRLIYWASTRESGVPDRFSGSGSGTDFTLTISSLQAEDVAVYYCQQYYTNPPWTFGQGTKVEIK
B12: JN225 (antibody, V domains shown)
VH: EVQLVESGGGLVQPGGSLRLSCGASGFTLGSFWMHWVRQAPGKGLEWVGDINGDGSAKYYADSVRGRFTISRDNAENSLFLQMNSLRVEDTALYYCARGAAWLDYWGQGTLVTVSS
VL: QSALTQPASVSGSPGQSITISCTGTSSDVGGYNYVSWYQQHPGKAPKLIIYDVTNRPSGVSNRFSGSKSGNTASLTISGLQAEDEADYFCDSYRSSSPPSYVFGTGTKVTVL
B13: JN135 (antibody, V domains shown)
VH: QLQLQESGPGLVKPSETLSLTCTVSGGSISSSSYYWGWIRQPPGKGLEWIGSIYYSGSTYYNPSLKSRVTISVDTSKNQFSLKLSSVTAADTAVYYCARLIAATWTFGGVIFNWFDPWGQGTLVTVSS
VL: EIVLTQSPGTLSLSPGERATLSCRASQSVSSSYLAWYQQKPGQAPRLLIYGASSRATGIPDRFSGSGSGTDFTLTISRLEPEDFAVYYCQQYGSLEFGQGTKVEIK
B14: JN227 (antibody, V domains shown)
VH: QLQLQESGPGLVKPSETLSLTCTVSGGSISSSSYYWGWIRQPPGKGLEWIGSIYYSGSTYYNPSLKSRVTISVDTSKNQFSLKLSSVTAADTAVYYCAREGVITIFGVAQFDYWGQGTLVTVSS
VL: not shown
B15: JN236 (antibody, V domains shown)
VH: QVQLQESGPRLVKPSETLSLTCTVSGGSINDYYWSWIRQPPGKGLEYLGYIYYTGTTNYNPSLQSRLTMSVDTSKNQFSLKVNYVSAADTAVYYCARHSTGGSYPLDSWGRGILVTVSS
VL: DIVMTQSPLTLPVTPGEPASISCRSSQSLLHSNGHNYVDWYLQKPGQSPQLLIHLGSNRASGVPDRFSGSGSGTDFTLKISRVEAEDVGVYFCMQALQSRTFGQGTKVEIK
B16: JN033 (antibody, V domains shown)
VH: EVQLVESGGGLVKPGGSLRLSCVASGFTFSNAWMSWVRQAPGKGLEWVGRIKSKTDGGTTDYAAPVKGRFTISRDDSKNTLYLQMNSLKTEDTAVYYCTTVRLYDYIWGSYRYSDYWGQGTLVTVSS
VL: DIQLTQSPFSLSASVGDRVTITCRASQGISSYLAWYQQKPGKAPKLLIYAASTLQSGVPSRFSGSGSGTEFTLTISSLQPEDFATYYCQQLNSYPPNTFGPGTKVDIK
B17: JN140 (antibody, V domains shown)
VH: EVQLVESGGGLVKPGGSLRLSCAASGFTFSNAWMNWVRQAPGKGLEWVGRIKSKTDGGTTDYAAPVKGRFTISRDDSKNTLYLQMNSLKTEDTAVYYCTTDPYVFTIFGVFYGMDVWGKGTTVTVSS
VL: QSALTQPASVSGSPGQSITISCTGTSSDVGSYNLVSWYQQHPGKAPKLMIYEVSKRPSGVSNRFSGSKSGNTASLTISGLQAEDEADYYCCSYAGSSTHHWVFGGGTKLTVL
B18: JN232 (antibody, V domains shown)
VH: EVQLVQSGAEVKKPGESLNISCKGSGYSFTNYWIGWVRQMPGKGLEWMGIIYPGDSDTRYSPSFQGQVTISADKSISTVFLQWSSLKASDTAMYYCVRHDVLAVLMGGVTFDIWGQGTMVTVSS
VL: EIVLTQSPGTLSLSPGERATLSCRASQSISSSYLAWYQQKSGQAPRLLIYGASSRATGIPDRFSGSGSGTDFTLTISRLEPEDFAVYYCQQYGGSPMYTFGQGTKLEIK

Target: SARS-CoV-2 Wuhan-Hu-1 NTD (SARS-CoV-2, UniProt P0DTC2 14-307)
Assay: cell-based or functional assay

Binder | neutralisation IC50, WT (293TAce2)
B1 | > 1 µg/mL
B2 | > 1 µg/mL
B3 | > 1 µg/mL
B4 | > 1 µg/mL
B5 | > 1 µg/mL
B6 | > 1 µg/mL
B7 | > 1 µg/mL
B8 | > 1 µg/mL
B9 | > 1 µg/mL
B10 | 0.401 µg/mL
B11 | > 1 µg/mL
B12 | > 1 µg/mL
B13 | 0.947 µg/mL
B14 | > 1 µg/mL
B15 | > 1 µg/mL
B16 | > 1 µg/mL
B17 | > 1 µg/mL
B18 | > 1 µg/mL
